Reference: patent US20090093002A1

Biological target: biotinylated complete Aβ1-42 peptide (Bachem) (UniProt P05067)
Assay: ELISA on biotinylated complete Aβ1-42 peptide

Sequence of biotinylated complete Aβ1-42 peptide (Bachem) (P05067 672-713 limits assumed): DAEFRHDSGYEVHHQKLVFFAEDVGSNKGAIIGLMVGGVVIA

Control IgG (antibody)
O.D: 0.196 O.D
